{"source": "the nanobody polyreactivity screen of Harvey et al. (2022)", "assay": "yeast display, Sf9 membrane polyspecificity reagent, FACS + sequencing; frameworks hold sequencing errors", "outline": "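Synthetic nanobody libraries on Saccharomyces cerevisiae BJ5465 were galactose-induced for 36–48 hours, stained 1 hour at 4 °C with 10% biotinylated, detergent-solubilized Sf9 membrane reagent and enriched on streptavidin microbeads. FACS then separated cells into low and high (top ~1%) gates by anti-HA (expression) and streptavidin (reagent binding) fluorescence. Genes were colony-PCR amplified, MiSeq 2 × 250 sequenced and CDR-length filtered. A clone's polyreactivity label is that of its gate of origin.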", "data": [{"sequence": "QVQLVESGGGLVQAGGSLRLSCAASGRTFSYYTMGWYRQAPGKERDLVAGIRSAGSTYYADSVKGRFTISRDNAKNTVYLLMNSLKPEDTAVYYCAARPYGGGRRSIYYYWGQGTQVTVSS", "values": [{"measurement": "polyreactivity (PSR sort gate)", "result": "high polyreactivity"}]}, {"sequence": "QVQLVESGGGLVQAGGSLRLICAASGRTFNINGMGWYRQAPGKERELVAAITTSGGSTYYADSVKGRFTISRDNAKNTVYLQMNSLKPEDTAVYYCAADVFSRKYLYGDYDYWGQGTQVTVSS", "values": [{"measurement": "polyreactivity (PSR sort gate)", "result": "high polyreactivity"}]}, {"sequence": "QVQLVESGGGLVQAGGSLRLSCAASGFIFYRDAMGWYRPAPGKERELVAAISSRGVSTYYADSVKGRFTISRDNAKNTVYLLMNSLKPEDTAVYSCARISRYYALYDYWGQGTQVTVSS", "values": [{"measurement": "polyreactivity (PSR sort gate)", "result": "high polyreactivity"}]}, {"sequence": "QVQLVESGGGLVQAGGSLRLSCAATGLTLKENVMGWYRQAPGKERELVAAISTGASTYYADSVKGRFTISRDNAKNTVYLQMNSLKPEDTAVYYCAKRVTRCYGYWGQGTQVTVSS", "values": [{"measurement": "polyreactivity (PSR sort gate)", "result": "high polyreactivity"}]}, {"sequence": "QVQLVESGGGLVQAGGSLRLSCAASGRTFRRYAMGWYRQAPGKERELVATIRSGDNTNYADSVKGRFTISRDNAKNTVYLQMNSLKPEDTAVYYCNRSPKSGQVTYLYSVNAHYDYWGQGTQVTVSS", "values": [{"measurement": "polyreactivity (PSR sort gate)", "result": "low polyreactivity"}]}, {"sequence": "QVQLVESGGGIVQAGGSLRLSCAASGRTFLGYAMGWYRQAPGKERELVAAISYSGSSTYYADSVKGRFTISRDNAKNTVYLQMNSLKPEDTAVYYCAAQFYFLFDYWGQGTQVTVSS", "values": [{"measurement": "polyreactivity (PSR sort gate)", "result": "low polyreactivity"}]}, {"sequence": "QVQLVESGGGLVQAGGSLRLSCAASGIIFWYYAMGWYRQAPGIERELVAAISQSGGRTYYADSVKGRFTISRDNAKKTVYLQMNSLKPEDTAVYYCAAEPYTGYGYWGQGTQVTVSS", "values": [{"measurement": "polyreactivity (PSR sort gate)", "result": "high polyreactivity"}]}, {"sequence": "QVQLVESGGGLVQAGGSLRLSCAASGFTFQDNAMGWYRHAPGKERELVASITGSGGSTYYADSVKGRFTISRDNAKNTVYLQMNSLKPEDTAVYYCAAETYTRSALVLYGSREMEYWGQGTQVTVSS", "values": [{"measurement": "polyreactivity (PSR sort gate)", "result": "low polyreactivity"}]}, {"sequence": "QVQLVESGGGLVQAGGSLRLSCAASGSIFQGNAMGWYTQAPGKERELVAAITYSGGSTYYADSVKGRFTISRDNAKNTVYLQMNSLKAEDTAVYYCNTTLRDSRQYVDRAQYNRYDYWGQGTQVTVSS", "values": [{"measurement": "polyreactivity (PSR sort gate)", "result": "low polyreactivity"}]}, {"sequence": "QVQLVESGGGLVQAGGSLRLICAASGFIFTTYAMGWYRQAPGKEREVVAAISSSGTTYYADSVKGRFTISRDNAKNTVYLQMNSLKPEDTAVYYCAARRQFRSYQQRLYYWGQGTQVTVSS", "values": [{"measurement": "polyreactivity (PSR sort gate)", "result": "low polyreactivity"}]}, {"sequence": "QVHLVDSGGGLVQAGGSLGLNCAASGRTLRYNAMGWYRQATGIERELVAAINWNGGSTYYADSVKGRFTISRETAMYTVYLQMNRLKPEDTAVYFCNDDFYHRYDWGQGTQVTVSS", "values": [{"measurement": "polyreactivity (PSR sort gate)", "result": "high polyreactivity"}]}, {"sequence": "QVQLVESGGGLVQAGGSLRLSCASSGRTFRGYVMGWYRQAPGKERELVASISYSGGSTYYADSVKGRFTISRDNAKNTVYLQMNSLKPEDTAVYYCAARKGYDQYRWRYSQNNYWGQGTQVTVSS", "values": [{"measurement": "polyreactivity (PSR sort gate)", "result": "high polyreactivity"}]}, {"sequence": "QVQLVESGGGLVQAGGSLRLSCAASGRIFVGYAMGWYRQAPGKERELVAAITGSGGGTYYADSVKGRFTISRDNAKNTVYLQMNSLKPEDTAVYYCAATGYLKVRGYYAWHFYYWGQGTQVTVSS", "values": [{"measurement": "polyreactivity (PSR sort gate)", "result": "high polyreactivity"}]}, {"sequence": "QVQLVESGGGLFQAGGSLRLSSAASGTRYYAMGWYRPAPGKERELVAGIRWRDGGTYYADSVKGRFTISRDNAKNTFYLQLNSLKPEDTAVYYCNASVTSWYKRAGYYWGQGSQVTVSS", "values": [{"measurement": "polyreactivity (PSR sort gate)", "result": "high polyreactivity"}]}, {"sequence": "QVQLVESGGGLVQAGGSLRLSCAASGRIYPAYAMGWSRQAPGKERELVASIRRGGITYADSVKGRFTISRDNAKNTVYLQMNSLKPEDTAVYYCNADYRGWGYHMDYWGQGTQVTVSS", "values": [{"measurement": "polyreactivity (PSR sort gate)", "result": "low polyreactivity"}]}, {"sequence": "QVQLVESGGGLVQAGGILRLSCAASGFIFRDYAMGWYRQAPGKERELVAAISFTDGTTYYADSVKGRFTISRDNAKNTVYLQMNSLKPEDTAVYYCAAGYTGYTYTELDYWGQGTQVTVSS", "values": [{"measurement": "polyreactivity (PSR sort gate)", "result": "low polyreactivity"}]}, {"sequence": "QVQLVESRGGLVQEGGSLRLSCAASGRIFSVYAMGSYRQEPGKERELVASISSGGSTYYADSVMWRFTISRDNAKNTVYLQRTSQKAEDTAVYYCAAGYWTTFRSIYDYWGQGTQVTVSS", "values": [{"measurement": "polyreactivity (PSR sort gate)", "result": "low polyreactivity"}]}]}
